Laboratory results: US7558625B2, “Combined micro-channel generation and iontophoresis for transdermal delivery of pharmaceutical agents” (TransPharma Medical Ltd., priority 2004, dated 2009)

Test: Transdermal delivery of hGH by ViaDerm and iontophoresis in anesthetized pigs, plasma hGH
Assay type: in vivo
Design: average AUC: unit: ng×hr/ml
Protocol: ViaDerm applications were performed on 8 adjacent sites on the marginal ear of each of the pigs using 80 μm electrodes and 2 bursts.
2 groups of pigs (males, 10-15 kg, large white) were tested: • Group 1: SC (250 μg)—3 pigs (no. 3, 9 and 25). • Group 2: ViaDerm and then iontophoresis was applied 5 times, each iontophoresis patch contained 22.5 mg (22.5×5; total of 112.5 mg)—3 pigs (no. 19, 20 and 21). Results

[1] = pigs, ViaDerm and Iontophoresis group, 5 consecutive patches

hGH: human growth hormone (Genotropin, Pharmacia and Upjohn)
hGH plasma levels (SC 0.25 mg hGH, pig3, 0 h): 0.14 ng/mL | hGH plasma levels (SC 0.25 mg hGH, pig3, 1 h): 6.40 ng/mL | hGH plasma levels (SC 0.25 mg hGH, pig3, 2 h): 10.57 ng/mL | hGH plasma levels (SC 0.25 mg hGH, pig3, 3 h): 6.02 ng/mL | hGH plasma levels (SC 0.25 mg hGH, pig3, 4 h): 5.39 ng/mL | hGH plasma levels (SC 0.25 mg hGH, pig3, 5 h): 2.57 ng/mL | hGH plasma levels (SC 0.25 mg hGH, pig3, 6 h): 3.35 ng/mL | hGH plasma levels (SC 0.25 mg hGH, pig3, 7 h): 2.40 ng/mL | hGH plasma levels (SC 0.25 mg hGH, pig3, 8 h): 2.00 ng/mL | hGH plasma levels (SC 0.25 mg hGH, pig3, 9 h): 1.48 ng/mL | hGH plasma levels (SC 0.25 mg hGH, pig3, 10 h): 1.18 ng/mL | hGH plasma levels (SC 0.25 mg hGH, pig3, 11 h): 1.49 ng/mL | hGH plasma levels (SC 0.25 mg hGH, pig3, 12 h): 1.75 ng/mL | hGH plasma levels (SC 0.25 mg hGH, pig9, 0 h): 0.08 ng/mL | hGH plasma levels (SC 0.25 mg hGH, pig9, 1 h): 22.96 ng/mL | hGH plasma levels (SC 0.25 mg hGH, pig9, 2 h): 18.06 ng/mL | hGH plasma levels (SC 0.25 mg hGH, pig9, 3 h): 15.88 ng/mL | hGH plasma levels (SC 0.25 mg hGH, pig9, 4 h): 12.39 ng/mL | hGH plasma levels (SC 0.25 mg hGH, pig9, 5 h): 9.85 ng/mL | hGH plasma levels (SC 0.25 mg hGH, pig9, 6 h): 6.53 ng/mL | hGH plasma levels (SC 0.25 mg hGH, pig9, 7 h): 6.31 ng/mL | hGH plasma levels (SC 0.25 mg hGH, pig9, 8 h): 4.19 ng/mL | hGH plasma levels (SC 0.25 mg hGH, pig9, 9 h): 2.58 ng/mL | hGH plasma levels (SC 0.25 mg hGH, pig9, 10 h): 1.83 ng/mL | hGH plasma levels (SC 0.25 mg hGH, pig9, 11 h): 1.25 ng/mL | hGH plasma levels (SC 0.25 mg hGH, pig9, 12 h): 0.88 ng/mL | hGH plasma levels (SC 0.25 mg hGH, pig25, 0 h): 0.10 ng/mL | hGH plasma levels (SC 0.25 mg hGH, pig25, 1 h): 38.06 ng/mL | hGH plasma levels (SC 0.25 mg hGH, pig25, 2 h): 31.00 ng/mL | hGH plasma levels (SC 0.25 mg hGH, pig25, 3 h): 16.32 ng/mL | hGH plasma levels (SC 0.25 mg hGH, pig25, 4 h): 13.40 ng/mL | hGH plasma levels (SC 0.25 mg hGH, pig25, 5 h): 8.69 ng/mL | hGH plasma levels (SC 0.25 mg hGH, pig25, 6 h): 6.66 ng/mL | hGH plasma levels (SC 0.25 mg hGH, pig25, 7 h): 3.89 ng/mL | hGH plasma levels (SC 0.25 mg hGH, pig25, 8 h): 2.76 ng/mL | hGH plasma levels (SC 0.25 mg hGH, pig25, 9 h): 1.67 ng/mL | hGH plasma levels (SC 0.25 mg hGH, pig25, 10 h): 1.19 ng/mL | hGH plasma levels (SC 0.25 mg hGH, pig25, 11 h): 1.09 ng/mL | hGH plasma levels (SC 0.25 mg hGH, pig25, 12 h): 0.78 ng/mL | hGH plasma levels (SC 0.25 mg hGH, pigs, Average, 0 h): 0.1 ng/mL | hGH plasma levels (SC 0.25 mg hGH, pigs, Average, 1 h): 22.5 ng/mL | hGH plasma levels (SC 0.25 mg hGH, pigs, Average, 2 h): 19.9 ng/mL | hGH plasma levels (SC 0.25 mg hGH, pigs, Average, 3 h): 12.7 ng/mL | hGH plasma levels (SC 0.25 mg hGH, pigs, Average, 4 h): 10.4 ng/mL | hGH plasma levels (SC 0.25 mg hGH, pigs, Average, 5 h): 7.0 ng/mL | hGH plasma levels (SC 0.25 mg hGH, pigs, Average, 6 h): 5.5 ng/mL | hGH plasma levels (SC 0.25 mg hGH, pigs, Average, 7 h): 4.2 ng/mL | hGH plasma levels (SC 0.25 mg hGH, pigs, Average, 8 h): 3.0 ng/mL | hGH plasma levels (SC 0.25 mg hGH, pigs, Average, 9 h): 1.9 ng/mL | hGH plasma levels (SC 0.25 mg hGH, pigs, Average, 11 h): 1.3 ng/mL | hGH plasma levels (SC 0.25 mg hGH, pigs, Average, 12 h): 1.1 ng/mL | average AUC (SC 250 μg, 3 pigs): 90.3 | AUC (SC 250 μg, pig no. 3): 44 ng·h/mL | AUC (SC 250 μg, pig no. 9): 102 ng·h/mL | AUC (SC 250 μg, pig no. 25): 125 ng·h/mL | Amount delivered (SC 250 μg, pigs): 250 µg | average AUC (ViaDerm, Ionto 22.5 mg × 5, 3 pigs): 210.3 | AUC (ViaDerm, Ionto 22.5 mg × 5, pig no. 19): 138 ng·h/mL | AUC (ViaDerm, Ionto 22.5 mg × 5, pig no. 20): 215 ng·h/mL | AUC (ViaDerm, Ionto 22.5 mg × 5, pig no. 21): 278 ng·h/mL | Amount delivered (ViaDerm, Ionto 22.5 mg × 5, pigs): 589 µg | hGH plasma levels (ViaDerm, Iontoph. × 5 Total 112.5 mg hGH, pig19, 0 h): 0.04 ng/mL | hGH plasma levels (ViaDerm, Iontoph. × 5 Total 112.5 mg hGH, pig19, 1 h): 8.39 ng/mL | hGH plasma levels (ViaDerm, Iontoph. × 5 Total 112.5 mg hGH, pig19, 2 h): 18.46 ng/mL | hGH plasma levels (ViaDerm, Iontoph. × 5 Total 112.5 mg hGH, pig19, 3 h): 24.50 ng/mL | hGH plasma levels (ViaDerm, Iontoph. × 5 Total 112.5 mg hGH, pig19, 4 h): 25.34 ng/mL | hGH plasma levels (ViaDerm, Iontoph. × 5 Total 112.5 mg hGH, pig19, 5 h): 25.27 ng/mL | hGH plasma levels (ViaDerm, Iontoph. × 5 Total 112.5 mg hGH, pig19, 6 h): 13.34 ng/mL | hGH plasma levels (ViaDerm, Iontoph. × 5 Total 112.5 mg hGH, pig19, 7 h): 9.63 ng/mL | hGH plasma levels (ViaDerm, Iontoph. × 5 Total 112.5 mg hGH, pig19, 8 h): 4.03 ng/mL | hGH plasma levels (ViaDerm, Iontoph. × 5 Total 112.5 mg hGH, pig19, 9 h): 4.08 ng/mL | hGH plasma levels (ViaDerm, Iontoph. × 5 Total 112.5 mg hGH, pig19, 10 h): 3.32 ng/mL | hGH plasma levels (ViaDerm, Iontoph. × 5 Total 112.5 mg hGH, pig19, 11 h): 1.42 ng/mL | hGH plasma levels (ViaDerm, Iontoph. × 5 Total 112.5 mg hGH, pig19, 12 h): 1.38 ng/mL | hGH plasma levels (ViaDerm, Iontoph. × 5 Total 112.5 mg hGH, pig20, 0 h): 0.06 ng/mL | hGH plasma levels (ViaDerm, Iontoph. × 5 Total 112.5 mg hGH, pig20, 1 h): 7.01 ng/mL | hGH plasma levels (ViaDerm, Iontoph. × 5 Total 112.5 mg hGH, pig20, 2 h): 22.45 ng/mL | hGH plasma levels (ViaDerm, Iontoph. × 5 Total 112.5 mg hGH, pig20, 3 h): 26.93 ng/mL | hGH plasma levels (ViaDerm, Iontoph. × 5 Total 112.5 mg hGH, pig20, 4 h): 31.04 ng/mL | hGH plasma levels (ViaDerm, Iontoph. × 5 Total 112.5 mg hGH, pig20, 5 h): 28.21 ng/mL | hGH plasma levels (ViaDerm, Iontoph. × 5 Total 112.5 mg hGH, pig20, 6 h): 22.09 ng/mL | hGH plasma levels (ViaDerm, Iontoph. × 5 Total 112.5 mg hGH, pig20, 7 h): 44.00 ng/mL | hGH plasma levels (ViaDerm, Iontoph. × 5 Total 112.5 mg hGH, pig20, 8 h): 10.69 ng/mL | hGH plasma levels (ViaDerm, Iontoph. × 5 Total 112.5 mg hGH, pig20, 9 h): 8.98 ng/mL | hGH plasma levels (ViaDerm, Iontoph. × 5 Total 112.5 mg hGH, pig20, 10 h): 6.49 ng/mL | hGH plasma levels (ViaDerm, Iontoph. × 5 Total 112.5 mg hGH, pig20, 11 h): 4.91 ng/mL | hGH plasma levels (ViaDerm, Iontoph. × 5 Total 112.5 mg hGH, pig20, 12 h): 5.01 ng/mL | hGH plasma levels (ViaDerm, Iontoph. × 5 Total 112.5 mg hGH, pig21, 0 h): 0.08 ng/mL | hGH plasma levels (ViaDerm, Iontoph. × 5 Total 112.5 mg hGH, pig21, 1 h): 2.68 ng/mL | hGH plasma levels (ViaDerm, Iontoph. × 5 Total 112.5 mg hGH, pig21, 2 h): 10.38 ng/mL | hGH plasma levels (ViaDerm, Iontoph. × 5 Total 112.5 mg hGH, pig21, 3 h): 24.52 ng/mL | hGH plasma levels (ViaDerm, Iontoph. × 5 Total 112.5 mg hGH, pig21, 4 h): 28.87 ng/mL | hGH plasma levels (ViaDerm, Iontoph. × 5 Total 112.5 mg hGH, pig21, 5 h): 44.93 ng/mL | hGH plasma levels (ViaDerm, Iontoph. × 5 Total 112.5 mg hGH, pig21, 6 h): 34.25 ng/mL | hGH plasma levels (ViaDerm, Iontoph. × 5 Total 112.5 mg hGH, pig21, 7 h): 33.54 ng/mL | hGH plasma levels (ViaDerm, Iontoph. × 5 Total 112.5 mg hGH, pig21, 8 h): 28.93 ng/mL | hGH plasma levels (ViaDerm, Iontoph. × 5 Total 112.5 mg hGH, pig21, 9 h): 24.89 ng/mL | hGH plasma levels (ViaDerm, Iontoph. × 5 Total 112.5 mg hGH, pig21, 10 h): 22.46 ng/mL | hGH plasma levels (ViaDerm, Iontoph. × 5 Total 112.5 mg hGH, pig21, 11 h): 17.86 ng/mL | hGH plasma levels (ViaDerm, Iontoph. × 5 Total 112.5 mg hGH, pig21, 12 h): 9.00 ng/mL | hGH plasma levels (ViaDerm, Iontoph. × 5 Total 112.5 mg hGH, pigs, Average, 0 h): 0.06 ng/mL | hGH plasma levels (ViaDerm, Iontoph. × 5 Total 112.5 mg hGH, pigs, Average, 1 h): 6.03 ng/mL | hGH plasma levels (ViaDerm, Iontoph. × 5 Total 112.5 mg hGH, pigs, Average, 2 h): 17.10 ng/mL | hGH plasma levels (ViaDerm, Iontoph. × 5 Total 112.5 mg hGH, pigs, Average, 3 h): 25.32 ng/mL | hGH plasma levels (ViaDerm, Iontoph. × 5 Total 112.5 mg hGH, pigs, Average, 4 h): 28.41 ng/mL | hGH plasma levels (ViaDerm, Iontoph. × 5 Total 112.5 mg hGH, pigs, Average, 5 h): 32.80 ng/mL | hGH plasma levels (ViaDerm, Iontoph. × 5 Total 112.5 mg hGH, pigs, Average, 6 h): 23.23 ng/mL | hGH plasma levels (ViaDerm, Iontoph. × 5 Total 112.5 mg hGH, pigs, Average, 7 h): 29.06 ng/mL | hGH plasma levels (ViaDerm, Iontoph. × 5 Total 112.5 mg hGH, pigs, Average, 8 h): 14.55 ng/mL | hGH plasma levels (ViaDerm, Iontoph. × 5 Total 112.5 mg hGH, pigs, Average, 9 h): 12.65 ng/mL | hGH plasma levels (ViaDerm, Iontoph. × 5 Total 112.5 mg hGH, pigs, Average, 10 h): 10.75 ng/mL | hGH plasma levels (ViaDerm, Iontoph. × 5 Total 112.5 mg hGH, pigs, Average, 11 h): 8.06 ng/mL | hGH plasma levels (ViaDerm, Iontoph. × 5 Total 112.5 mg hGH, pigs, Average, 12 h): 5.13 ng/mL | average AUC value (pigs, SC group): 90.3 ng·h/mL | AUC [1]: 210.3 ng·h/mL | Cmax [1]: 32.8 ng/mL | Tmax [1]: 5 to 7 h | skin irritation at the drug and the reference electrode (pigs, ViaDerm and Iontophoresis treated group): no irritation was observed
